Experimental data published in patent US20100062001A1 (TECHNION RESEARCH AND DEVELOPMENT, published 2010).

Molecular target: HLA-A2-G9-209 complex (as used for the affinity of 9H) (human, UniProt P61769 21-119; P40967 209-217)
Assay: method not stated (data not shown)

B1: 9H scFv antibody (scFv)
scFv: EVQLLESGGGLVQPGGSLRLSCAASGFTFQYYAMSWVRQAPGKGLEWVSSINWNSGTLDYADSVKGRFTISRDNSKNTLYLQMNSLRAEDTAVYYCARYSNYGLYAMDVWGQGTLVTVSSSGGGGSGGGGSGGGGSSDIVLTQPPSASGTPGQRVTISCSGSSSNIGSNPVTWYQQLPGTAPKPLIYGDSYRPSGVPDRFSGSKSGTSASLAISGLRSEDEADYYCATWDDDVNGVIFGGGTQLTVLR
notes: also called scFv 9H; clone 9H
**Q.** For B1, which Kd is on record?
**A.** The Kd was 0.5 nM.
